Reference: PMC2063703 (The Journal of Cell Biology, 2006)
Numbering of substitutions follows the chain as printed. Names may count otherwise.

B1: GST-Vta1^ΔN68 (domain or fragment)
chain: AEDSDKSLHVMNTLIHDQEKAKIYMLNFTMSLYNEKLKQLKDGPWDVMLKRSLWCCIDLFSCILHLWKENISETSTNSLQKRIKYCKIYLSKLAKGEIGSSDEKTLDYADFADDSEEIKDEDVDHQTSDLENNNNDKVEGLAPKDQTTSYEPVDEVPEFIDDADSVNEEEQTVDKNEDAITKDEQQVVKKEVDLTRPSAPSEPAAAEHKSYTKDELTKIMDRASKIEQIQKLAKYAISALNYEDLPTAKDELTKALDLLNSI
B2: GST-SBP1 (natural protein)
chain: MAALAPLPPLPAQFKSIQHHLRTAQEHDKRDPVVAYYCRLYAMQTGMKIDSKTPECRKFLSKLMDQLEALKKQLGDNEAITQEIVGCAHLENYALKMFLYADNEDRAGRFHKNMIKSFYTASLLIDVITVFGELTDENVKHRKYARWKATYIHNCLKNGETPQAGPVGIEEDNDIEENEDAGAASLPTQPTQPSSSSTYDPSNMPSGNYTGIQIPPGAHAPANTPAEVPHSTGVASNTIQPTPQTIPAIDPALFNTISQGDVRLTPEDFARAQKYCKYAGSALQYEDVSTAVQNLQKALKLLTTGRE
B3: Vps4 (enzyme)
chain: MSTGDFLTKGIELVQKAIDLDTATQYEEAYTAYYNGLDYLMLALKYEKNPKSKDLIRAKFTEYLNRAEQLKKHLESEEANAAKKSPSAGSGSNGGNKKISQEEGEDNGGEDNKKLRGALSSAILSEKPNVKWEDVAGLEGAKEALKEAVILPVKFPHLFKGNRKPTSGILLYGPPGTGKSYLAKAVATEANSTFFSVSSSDLVSKWMGESEKLVKQLFAMARENKPSIIFIDEVDALTGTRGEGESEASRRIKTELLVQMNGVGNDSQGVLVLGATNIPWQLDSAIRRRFERRIYIPLPDLAARTTMFEINVGDTPCVLTKEDYRTLGAMTEGYSGSDIAVVVKDALMQPIRKIQSATHFKDVSTEDDETRKLTPCSPGDDGAIEMSWTDIEADELKEPDLTIKDFLKAIKSTRPTVNEDDLLKQEQFTRDFGQEGN
B4: Vps4^E233Q (enzyme)
chain: B3 chain with E233Q
B5: GST-Vta1^Δ37–68 (natural protein)
chain: MASNAARVVATAKDFDKVGLGIIGYYLQLYAVELILAEDSDKSLHVMNTLIHDQEKAKIYMLNFTMSLYNEKLKQLKDGPWDVMLKRSLWCCIDLFSCILHLWKENISETSTNSLQKRIKYCKIYLSKLAKGEIGSSDEKTLDYADFADDSEEIKDEDVDHQTSDLENNNNDKVEGLAPKDQTTSYEPVDEVPEFIDDADSVNEEEQTVDKNEDAITKDEQQVVKKEVDLTRPSAPSEPAAAEHKSYTKDELTKIMDRASKIEQIQKLAKYAISALNYEDLPTAKDELTKALDLLNSI
B6: GST-Vta1 (natural protein)
chain: MASNAARVVATAKDFDKVGLGIIGYYLQLYAVELILSEEDRSQEMTALATELLDTIEAFKKEIGGESEAEDSDKSLHVMNTLIHDQEKAKIYMLNFTMSLYNEKLKQLKDGPWDVMLKRSLWCCIDLFSCILHLWKENISETSTNSLQKRIKYCKIYLSKLAKGEIGSSDEKTLDYADFADDSEEIKDEDVDHQTSDLENNNNDKVEGLAPKDQTTSYEPVDEVPEFIDDADSVNEEEQTVDKNEDAITKDEQQVVKKEVDLTRPSAPSEPAAAEHKSYTKDELTKIMDRASKIEQIQKLAKYAISALNYEDLPTAKDELTKALDLLNSI
B7: Vta1 (purified recombinant, bacterially expressed) (natural protein)
chain: B6 chain
B8: GST-Vta1^S306A (natural protein)
chain: B6 chain with S306A
B9: His6-Vta1 (natural protein)
chain: B6 chain
B10: GST-Vta1^K322A (natural protein)
chain: B6 chain with K322A

Key:
Vps4^E233Q [1] = target: B4; experiment: pull-down
Vps4 (yeast) = Vps4 (yeast) (UniProt P52917)
SEC = target: the molecule itself; experiment: SEC
[2] = target: B7; experiment: SEC
Vps4^E233Q [3] = target: B4; experiment: SEC
AUC = target: the molecule itself; experiment: AUC

B1
binding result (Vps4^E233Q [1]): binds

RASKIEQIQKLAKYAISALNYEDLPTAKDELTKALDLLNSI (domain or fragment) [GST-VSL^Vta1]
binding result (Vps4^E233Q [1]): binds

EDFARAQKYCKYAGSALQYEDVSTAVQNLQKALKLLTTGRE (domain or fragment) [GST-VSL^SBP1]
binding result (Vps4^E233Q [1]): binds

B2
binding result (Vps4^E233Q [1]): binds

B3
Km of the Vps4 protein concentration-dependent ATPase activity, with 1 μM Vta1 (Vps4 (yeast)): 0.118 µM
Km of the Vps4 protein concentration-dependent ATPase activity, with 6 μM Vta1 (Vps4 (yeast)): 0.069 µM
Km of the Vps4 protein concentration-dependent ATPase activity, without Vta1 (Vps4 (yeast)): 1.1 µM

B4
stoichiometry N (SEC): 2
stoichiometry N [2]: ~1

B5
binding result (Vps4^E233Q [1]): binds

B6
binding result (Vps4^E233Q [1]): binds

B7
binding result (Vps4^E233Q [3]): binds

B8
binding result (Vps4^E233Q [1]): binds

B9
stoichiometry N (AUC): 2

B10
binding result (Vps4^E233Q [1]): binds
